B3: P4.33 protein (IGFBP-3 receptor, IGFBP-3R), untagged / endogenous (receptor)
chain: SFLLTHRTGLRSPDIPQDWVSFLRSFGQLTLCPRNGTVTGKWRGSHVVGLLTTLNFGDGPDRNKTRTFQATVLGSQMGLKGSSAGQLVLITARVTTERTAGTCLYFSAVPGILPSSQPPISCSEEGAGNATLSPRMGEECVSVWSHEGLVLTKLLTSEELALCGSRLLVLGSFLLLFCGLLCCVTAMCFHPRRESHWSRTRL

Assay [1] has as its target B3. The assay can be described thus: cell-surface competition assay; competitor of full-length IGFBP-3.
In assay [2] the target is T1, Insulin-like Growth Factor Binding Protein-3 (IGFBP-3) (UniProt P17936 28-291, limits assumed, 125I label or OregonGreen label in some assays (sites not given)).
T1 construct: mature; Also used for IGFBP-3 expressed by the cells themselves (Hs578T, PC-3, MCF-7:BP-3 lines) in the functional rows; also called unlabelled IGFBP-3
The assay can be described thus: cell-surface binding with unlabelled IGFBP-3 as competitor, Hs578T cells transfected with un-tagged clone 4.33. As for the experimental part:
Cell surface binding assay. Cells were seeded into 24-well plates and grown to 60-70% confluency, then transfected according to manufacturer instructions in serum-containing medium for 36 hours. Sf9 cells were seeded into 24-well plates and infected with virus harboring the 4-33^F cDNA for 48 hours. Cells were washed in cold PBS, then incubated for 3 hours at 12° C. in binding buffer (1× Hank's buffered salt solution, 1 mM CaCl₂, 1 mM MgCl₂, 0.5% BSA) containing [¹²⁵I]-IGFBP-3 (Diagnostic Systems Laboratories) at 50,000 cpm per well in triplicate, with or without unlabelled IGFBP-3 as indicated in the text below. The binding solution was then aspirated and the cells washed in cold binding buffer (without BSA), lysed in 0.25 N NaOH, and the radiolabelled IGFBP-3 present in each lysate was detected in a gamma counter.
Cells were then washed and exposed to [¹²⁵I]-labelled IGFBP-3 plus and minus increasing amounts of unlabelled IGFBP-3 as indicated for 3 hours at 12° C.

B1: IGFBP-3 fragment comprising amino acids 98-264 (other, UniProt P17936 125-291, looked up)
chain: AYLLPAPPAPGNASESEEDRSAGSVESPSVSSTHRVSDPKFHPLHSKIIIIKKGHAKDSQRYKVDYESQSTDTQNFSSESKRETEYGPCRREMEDTLNHLKFLNVLSPRGVHIPNCDKKGFYKKKQCRPSKGRKRGFCWCVDKYGQPLPGYTTKGKEDVHCYSMQSK
notes: range 98-264; also called IGFBP-3 fragment 98-264
Take B1: in assay [1], the binding result is reported as “binds”.

B2: IGFBP-3 fragment comprising amino acids 88-148 (peptide, UniProt P17936 115-175, looked up)
chain: VNASAVSRLRAYLLPAPPAPGNASESEEDRSAGSVESPSVSSTHRVSDPKFHPLHSKIIII
notes: range 88-148; also called IGFBP-3 fragment 88-148
With B2, in assay [1], the binding result is reported as “binds”.
B3: in assay [2], the binding result is listed as “binds”.

The values are drawn from patent publication US20040072285A1 (OREGON HEALTH AND SCIENCE UNIVERSITY, published 2004).
